Patent publication US8128802B2, “Analysis apparatus and analysis method for glycosylated hemoglobin” (OJI Paper Co., Ltd, priority 2005, dated 2012)

Tested on: human hemoglobin
Test: Proteolysis of human hemoglobin by proteases, fructosyl amino acid detected (Comparative Example 3)
Format: biochemical
Details: 1 mg/mL protease, 37° C. for 30 minutes; assay apparatus 2
Procedure: FIG. 2 was the flow type assay apparatus for fructosyl amino acid with the dialysis module. The buffer B was pumped out from the buffer tank (24) using the pump (25), and a 100 μL portion of the sample was injected using the valve (4). The protease-immobilized enzyme column (14), the second immobilized enzyme column (19), the electrode for hydrogen peroxide (20) and the flow type calorimeter (16) were not disposed. The fructosyl amino acid oxidase-immobilized column was placed in the first immobilized enzyme column (17). The injected sample transferred with the flowing buffer B, was carried to the dialysis module (27) in the incubator (13), and only the components with low molecular weight in the sample were permeated through the regenerated cellulose membrane with the membrane thickness of 20 μm and molecular weight cut off of 12000 to 14000 to a detection system (17, 18) of the fructosyl amino acid. Since the buffer A was pumped out from the buffer tank (1) by the pump (2), the components with low molecular weight in the sample dialyzed by the dialysis module passed through the fructosyl amino acid oxidase-immobilized column (17) and the electrode for hydrogen peroxide (18), and hydrogen peroxide produced from the fructosyl amino acid in the sample was detected. […]

B1: Proteinase K: protease from Tritirachium album, Sigma-Aldrich Co. (protein, UniProt P06873 106-384, looked up)
Proteinase K: AAQTNAPWGLARISSTSPGTSTYYYDESAGQGSCVYVIDTGIEASHPEFEGRAQMVKTYYYSSRDGNGHGTHCAGTVGSRTYGVAKKTQLFGVKVLDDNGSGQYSTIIAGMDFVASDKNNRNCPKGVVASLSLGGGYSSSVNSAAARLQSSGVMVAVAAGNNNADARNYSPASEPSVCTVGASDRYDRRSSFSNYGSVLDIFGPGTSILSTWIGGSTRSISGTSMATPHVAGLAAYLMTLGKTTAASACRYIADTANKGDLSNIPFGTVNLLAYNNYQA
Which “Result (detected value of the fructosyl amino acid after proteolysis)” value does the source give for B1 here?
Its value is “C (the detected value of less than 20 pA)”.
